Consider 23 molecules from patent US20180273635A1 (Zymeworks, published 2018).

First the molecules themselves.
B1: Variant 14027 (antibody, human IgG1, kappa)
heavy: EVQLVESGGGLVQPGGSLRLSCAASGFTFTDYTMDWVRQAPGKGLEWVADVNPNSGGSIYNQRFKGRFTLSVDRSWNTLYLQMNSLRAEDTAVYYCARNLGPSFYFDYWGQGTLVTVSSASTKGPSVFPLAPSSKSTSGGTAALGCLVKDYFPEPVTVSWNSGALTSGVHTFPAVLQSSGLYSLSSVVTVPSSSLGTQTYICNVNHKPSNTKVDKKVEPKSCDKTHTCPPCPAPELLGGPSVFLFPPKPKDTLMISRTPEVTCVVVDVSHEDPEVKFNWYVDGVEVHNAKTKPREEQYNSTYRVVSVLTVLHQDWLNGKEYKCKVSNKALPAPIEKTISKAKGQPREPQVYVYPPSRDELTKNQVSLTCLVKGFYPSDIAVEWESNGQPENNYKTTPPVLDSDGSFALVSKLTVDKSRWQQGNVFSCSVMHEALHNHYTQKSLSLSPG
light: not shown
chain: not shown
notes: OA (one-armed) format; clones 7844, 7917, 4372; also called v14027
B2: Variant 14029 (antibody, human IgG1, kappa)
heavy: B1 heavy with G57Y
light: not shown
chain: not shown
notes: OA (one-armed) format; clones 8777, 1811, 4372; also called v14029
B3: Variant 14028 (antibody, human IgG1, kappa)
heavy: B1 heavy with T30Y
light: not shown
chain: not shown
notes: OA (one-armed) format; clones 8776, 1811, 4372; also called v14028
B4: Variant 14026 (antibody, human IgG1, kappa)
heavy: B1 heavy with S103W
light: not shown
chain: not shown
notes: OA (one-armed) format; clones 8774, 1811, 4372; also called v14026
B5: variant 12498 (antibody, human IgG1, kappa)
heavy: B1 heavy with Q62K, W76K
light: not shown
chain: not shown
notes: OA pertuzumab variant, HC Q61K (Kabat); also called v12498
B6: variant 12501 (antibody, human IgG1, kappa)
heavy: B1 heavy with S75E, W76K
light: not shown
chain: not shown
notes: OA pertuzumab variant, HC S74E (Kabat); also called v12501
B7: variant 12545 (antibody, human IgG1, kappa)
heavy: B1 heavy with Q62R, W76K
light: not shown
chain: not shown
notes: OA pertuzumab variant, HC Q61R, LC Y94K (Kabat); also called v12545
B8: variant 14067 (antibody, human IgG1, kappa)
heavy: B1 heavy with W76Y
light: not shown
chain: not shown
notes: OA pertuzumab variant, HC K75Y (Kabat); also called v14067
B9: variant 12539 (antibody, human IgG1, kappa)
heavy: B1 heavy with W76K
light: DIQMTQSPSSLSASVGDRVTITCKASQDVSIGVAWYQQKPGKAPKLLIYSASYRYTGVPSRFSGSGSGTDFTLTISSLQPEDFATYYCQQTYIYPYTFGQGTKVEIKRTVAAPSVFIFPPSDEQLKSGTASVVCLLNNFYPREAKVQWKVDNALQSGNSQESVTEQDSKDSTYSLSSTLTLSKADYEKHKVYACEVTHQGLSSPVTKSFNRGEC
chain: not shown
notes: OA pertuzumab variant, LC Y91T (Kabat); also called v12539
B10: variant 12526 (antibody, human IgG1, kappa)
heavy: B1 heavy with G57M, I59Y, W76K
light: not shown
chain: not shown
notes: also called v12526
B11: variant 14065 (antibody, human IgG1, kappa)
heavy: B1 heavy with W76I
light: not shown
chain: not shown
notes: OA pertuzumab variant, HC K75I (Kabat); also called v14065
B12: variant 12543 (antibody, human IgG1, kappa)
heavy: B1 heavy with F64L, W76K
light: not shown
chain: not shown
notes: OA pertuzumab variant, HC F63L (Kabat); also called v12543
B13: variant 14064 (antibody, human IgG1, kappa)
heavy: B1 heavy with W76A
light: not shown
chain: not shown
notes: OA pertuzumab variant, HC K75A (Kabat); also called v14064
B14: variant 14066 (antibody, human IgG1, kappa)
heavy: B1 heavy with W76V
light: not shown
chain: not shown
notes: OA pertuzumab variant, HC K75V (Kabat); also called v14066
B15: variant 12537 (antibody, human IgG1, kappa)
heavy: B1 heavy with W76K
light: not shown
chain: not shown
notes: OA pertuzumab variant, LC Y96M (Kabat); also called v12537
B16: variant 12535 (antibody, human IgG1, kappa)
heavy: B1 heavy with W76K
light: B9 light with T91N
chain: not shown
notes: OA pertuzumab variant, LC Y91N (Kabat); also called v12535
B17: variant 12515 (antibody, human IgG1, kappa)
heavy: B1 heavy with W76K
light: B9 light with T56W, T91Y
chain: not shown
notes: OA pertuzumab variant, LC T56W (Kabat); also called v12515
B18: variant 12542 (antibody, human IgG1, kappa)
heavy: B1 heavy with F64G, W76K
light: not shown
chain: not shown
notes: OA pertuzumab variant, HC F63G (Kabat); also called v12542
B19: variant 12500 (antibody, human IgG1, kappa)
heavy: B1 heavy with S75Y, W76K
light: not shown
chain: not shown
notes: OA pertuzumab variant, HC S74Y (Kabat); also called v12500
B20: variant 12499 (antibody, human IgG1, kappa)
heavy: B1 heavy with S75D, W76K
light: not shown
chain: not shown
notes: OA pertuzumab variant, HC S74D (Kabat); also called v12499
B21: variant 12541 (antibody, human IgG1, kappa)
heavy: B1 heavy with W76K
light: not shown
chain: not shown
notes: OA pertuzumab variant, LC Y96L (Kabat); also called v12541
B22: variant 12518 (antibody, human IgG1, kappa)
heavy: B1 heavy with T30R, G57R, W76K
light: not shown
chain: not shown
notes: also called v12518
B23: variant 12546 (antibody, human IgG1, kappa)
heavy: B1 heavy with Q62R, W76K
light: B9 light with D1N, T91Y
chain: not shown
notes: OA pertuzumab variant, HC Q61R, LC D1N (Kabat); also called v12546

Substitutions are numbered along the chain they refer to. Numbers in names are those of the source.

The first assay deals with T1, Recombinant human HER2 (human, UniProt P04626 23-652).
T1 construct: extracellular domain; Analyte of the SPR assays; also called HER2 ECD; ECD2 of HER2
In words: calculated from the SPR Ka ratio to WT v10013.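 Further: SPR at 25 °C with constructs captured on an anti-human Fc chip and HER2 extracellular domain as analyte, kinetics fitted to a 1:1 Langmuir model.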
Method: (§1) The affinity towards HER2 ECD of the samples was measured by SPR on a Biacore T200 as follows. Between 2000 and 4000 RU of anti-human Fc injected at concentration between 5 and 10 μg/ml was immobilized on a CM5 chip using standard amine coupling. Antigen-binding constructs were captured on the anti-human Fc (injected at concentration at 0.51 microg/mL in PBST, 1 min at 10 microl/min) at response levels ranging from 120-270 RU. […] HER2 dilutions were analyzed in duplicates. Sensograms were fit globally to a 1: 1 Langmuir binding model, using the software provided with the Biacore T200. All experiments were conducted at 25° C.
As for B1, the ΔΔG is -3 kcal/mol.

Consider B2, for which the ΔΔG is -2.6 kcal/mol.

In the case of B3, the ΔΔG is -2.5 kcal/mol.

Consider B4, for which the ΔΔG was -2.4 kcal/mol.

For the next assay, the target named is T1, Recombinant human HER2. The assay can be described thus: SPR, 25 C; Ka ratio to WT v10013. (In SPR one partner is held on a chip, and binding of the other changes the refractive index at the surface.)
Consider B1, for which the “Ka, mut/Ka, WT” value is approximately 164 fold.

With B2, the “Ka, mut/Ka, WT” value was approximately 81 fold.

With B3, the “Ka, mut/Ka, WT” value is approximately 67 fold.

Consider B4, for which the “Ka, mut/Ka, WT” value was approximately 57 fold.

Another assay addresses T2, Recombinant human HER2 (human, UniProt P04626 23-652).
T2 construct: extracellular domain; analyte of the SPR assays; also called HER2 ECD; ECD2 of HER2
In words: SPR, variant captured on anti-human Fc, HER2 flowed, 25 C, pre-SEC.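 Further: HER2 extracellular domain binding on Biacore T200, CM5 chip with amine-coupled anti-human Fc, duplicate antigen dilutions, global 1:1 Langmuir fit, measured after protein A purification.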
Method: as §1
(§2) The affinity of antigen-binding constructs in OA format was determined by SPR following protein A purification. […] Antigen-binding constructs in FSA format were purified by protein A affinity and SEC prior to assessment of affinity by SPR.
As to B5, the Kd turned out to be 19 nM.

For B6, the Kd was 85 nM.

For B7, the Kd is 81 nM.

Turning to B8, the Kd worked out at 0.94 nM.

Turning to B9, the Kd was 75 nM.

With B10, the Kd stood at 130 nM.

As for B11, the Kd came out at 11 nM.

As to B12, the Kd stood at 20 nM.

For B13, the Kd was determined as 9.7 nM.

On to B14, for which the Kd amounted to 10 nM.

As for B15, the Kd was 57 nM.

Consider B16, for which the Kd turned out to be 23 nM.

For the molecule B17, the Kd came out at 26 nM.

B18: the Kd was 40 nM.

With B19, the Kd amounted to 20 nM.

With B20, the Kd was found to be 69 nM.

B21: the Kd was found to be 63 nM.

Regarding B22, the Kd turned out to be 21 nM.

On to B23, for which the Kd turned out to be 15 nM.

A further assay concerns the target T1, Recombinant human HER2. In words: SPR, Biacore T200, 25 C; variant captured on anti-human Fc, HER2 flowed.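 Further: HER2 extracellular domain analyte run as duplicate dilutions over amine-coupled anti-Fc on a CM5 chip, rates from global sensorgram fitting with a 1:1 Langmuir model.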
Method: as §1
Turning to B1, the Kd is approximately 0.1 nM, the koff was approximately 9e-06 s⁻¹ and the kon is 88000 M⁻¹ s⁻¹.

As to B2, the Kd was approximately 0.21 nM, the koff was approximately 2e-05 s⁻¹ and the kon is 95000 M⁻¹ s⁻¹.

Regarding B3, the Kd is approximately 0.25 nM, the koff was approximately 1.7e-05 s⁻¹ and the kon is 68000 M⁻¹ s⁻¹.

B4: the Kd is approximately 0.29 nM, the koff is approximately 2.7e-05 s⁻¹ and the kon turned out to be 91000 M⁻¹ s⁻¹.

A further assay addresses T2, Recombinant human HER2. The assay can be described thus: SPR, pre-SEC; ratio to WT v10013.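 Further: SPR on Biacore T200 at 25 °C, constructs captured via anti-human Fc on CM5 chip, HER2 ECD as analyte, 1:1 Langmuir global fit, after protein A purification.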
Method: as §1, §2
Turning to B5, the “Ka, mut/Ka, WT” value is 1.

Consider B6, for which the “Ka, mut/Ka, WT” value stood at 0.2.

Turning to B7, the “Ka, mut/Ka, WT” value was 0.2.

Regarding B8, the “Ka, mut/Ka, WT” value is 18.

As for B9, the “Ka, mut/Ka, WT” value is 0.3.

Turning to B10, the “Ka, mut/Ka, WT” value was 0.2.

For B11, the “Ka, mut/Ka, WT” value turned out to be 1.5.

For the molecule B12, the “Ka, mut/Ka, WT” value turned out to be 1.

Take B13: the “Ka, mut/Ka, WT” value was determined as 1.7.

For the molecule B14, the “Ka, mut/Ka, WT” value was 1.6.

Regarding B15, the “Ka, mut/Ka, WT” value worked out at 0.3.

Consider B16, for which the “Ka, mut/Ka, WT” value came out at 0.8.

B17: the “Ka, mut/Ka, WT” value amounted to 0.8.

With B18, the “Ka, mut/Ka, WT” value stood at 0.5.

Turning to B19, the “Ka, mut/Ka, WT” value was determined as 1.

As to B20, the “Ka, mut/Ka, WT” value worked out at 0.3.

For B21, the “Ka, mut/Ka, WT” value came to 0.3.

For the molecule B22, the “Ka, mut/Ka, WT” value stood at 0.9.

B23: the “Ka, mut/Ka, WT” value came to 1.3.

For orientation: Kd means a measure of binding affinity in units of concentration. Broadly, the koff is the first-order rate constant of dissociation. By kon is commonly meant the second-order rate constant of association.
